The target of assay [1] is T1, human CD47 protein (human, UniProt Q08722 19-139, limits assumed).
T1 construct: also called human CD47 antigen
The assay is described as follows: ELISA on human CD47 protein, antibody 15 ug/ml.

Assay [2] deals with T1, human CD47 protein. The assay is described as follows: ELISA on human CD47 protein, antibody 45 ug/ml.
Assay [3] addresses T1, human CD47 protein. The assay is described as follows: ELISA on human CD47 protein, antibody 1.67E+00 ug/ml. In general terms: In an ELISA, binding on a coated surface is turned into a signal by an enzyme label.
For assay [4], the target named is T1, human CD47 protein. The experiment in a line: ELISA on human CD47 protein, antibody 1.85E-01 ug/ml.
For assay [5], the target named is T1, human CD47 protein. The assay is described as follows: ELISA on human CD47 protein, antibody 2.06E-02 ug/ml.
In assay [6] the target is T1, human CD47 protein. The assay is described as follows: ELISA on human CD47 protein, antibody 2.29E-03 ug/ml.
The target in assay [7] is T1, human CD47 protein. The experiment in a line: ELISA on human CD47 protein, antibody 5.00E+00 ug/ml.
Assay [8] addresses T1, human CD47 protein. The experiment in a line: ELISA on human CD47 protein, antibody 5.56E-01 ug/ml.
For assay [9], the target named is T1, human CD47 protein. The assay is described as follows: ELISA on human CD47 protein, antibody 6.17E-02 ug/ml.
In assay [10] the target is T1, human CD47 protein. The experiment in a line: ELISA on human CD47 protein, antibody 6.86E-03 ug/ml.
The target in assay [11] is T1, human CD47 protein. The assay is described as follows: ELISA on human CD47 protein, antibody 7.62E-04 ug/ml.
The target of assay [12] is T1, human CD47 protein. The experiment in a line: ELISA on human CD47 protein, antibody 0 ug/ml (blank).
Assay [13] has as its target T1, human CD47 protein. The experiment in a line: ELISA on human CD47 protein, OD450nm against log Ab conc; EC50 row of the table drawn under the plot; the curve has no lower plateau in the range shown.

T1 sequence (Q08722 19-139 limits assumed): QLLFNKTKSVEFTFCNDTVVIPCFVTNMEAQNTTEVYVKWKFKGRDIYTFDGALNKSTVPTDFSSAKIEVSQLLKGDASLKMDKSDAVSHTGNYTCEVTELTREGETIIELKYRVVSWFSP

B1: 32G8H6 (antibody, V domains shown)
VH: EVQLQQSGPELVKPGASVKLSCKASGYTFTSSVIHWVKQKPGQGLEWLGYINPYSDGTKFNEKCKIKATLTSDKSSSTAYMELSSLTSEDSAVYYCARGLIGTRYDSWFAYWGQGTLVTVSA
VL: DIQMTQNGSSLSASLGDRVTISCRTSQDINNYLNWYQQKQDGTVKLLIYYTSRLHSGVPSRFSGSGSGTDYSLTIRNLEQEDIATYFCQQGNTLPYTFGGGTKLEIK
notes: Mouse hybridoma antibody; also called parent mAb (32G8H6); 32G8H6 (mAb)
A word on the EC50: it is the concentration at which the effect is half-maximal. A higher EC50 goes with a need for much substance. On to B1, for which the ELISA signal with human CD47 protein [1] came out at 3.87; in the assay with human CD47 protein [2], 3.83; with human CD47 protein [3] it was 3.71; with human CD47 protein [4], 3.81; in the assay with human CD47 protein [5], 3.33; with human CD47 protein [6], 2.68. Besides, the ELISA signal with human CD47 protein [7] worked out at 3.78; with human CD47 protein [8], 3.8; in the assay with human CD47 protein [9], 3.73; with human CD47 protein [10] it was 2.98; with human CD47 protein [11] it was 2.32; with human CD47 protein [12], 0.086. Besides, in the assay with human CD47 protein [13], the EC50 was determined as 6.55 ng/mL.

These data come from patent US20220204613A1 (D 10 THERAPEUTICS, published 2022).
